From patent EP4703388A1 (Jiangsu Hengrui Pharmaceuticals Co., Ltd., dated 2024)

T1: cyno TF ECD-His (cTF-his) (monkey (cyno))
T1 construct: also called bio-cTF-his; monkey TF-His protein
T1 chain: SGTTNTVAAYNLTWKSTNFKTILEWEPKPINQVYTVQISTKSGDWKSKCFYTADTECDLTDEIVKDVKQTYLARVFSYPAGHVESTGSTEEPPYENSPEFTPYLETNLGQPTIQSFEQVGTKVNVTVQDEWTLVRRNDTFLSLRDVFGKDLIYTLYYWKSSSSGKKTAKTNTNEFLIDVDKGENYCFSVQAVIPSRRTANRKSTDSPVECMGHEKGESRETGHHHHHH


Experiments:
[1] = target: T2, human tissue factor (TF) on MDA-MB-231, NCI-H358 and HCT116 cells (human, UniProt P13726 33-295); test: flow cytometry on H358 cells
T2 construct: whole, on cells; also called TF antigen; CD142

[2] = target: T3, human TF ECD-His (hTF-his) (human, UniProt P13726 33-251); test: SPR Biacore T200, antibody on Protein A chip, TF-His as analyte, 1:1 model
T3 construct: also called bio-hTF-his; human TF-His protein

[3] = target: T1, cyno TF ECD-His (cTF-his); test: as above
[4] = target: T2, human tissue factor (TF) on MDA-MB-231, …; test: flow cytometry on MDA-MB-231 cells

EC50 [1] | Kd [2] | koff [2] | kon [2] | Kd [3] | koff [3] | kon [3] | EC50 [4] | Binder
90.5 nM | 18.9 nM | 0.000766 s⁻¹ | 40500 M⁻¹ s⁻¹ | 15.5 nM | 0.000523 s⁻¹ | 33700 M⁻¹ s⁻¹ | 18 nM | hu67-4 (antibody, human IgG1, kappa, V domains shown) VH: EVQLQESGPGLVKPSQTLSLTCTVSGFSLTNYGVNWIRQPPRKGLEWIGVIWSRGNTDYNAAFISRVTISKDNSKSQVSLKLSSVTAADTAVYYCARKDAVVATDALDYWGQGTTVTVSS VL: DIVMTQSPKSLAVSLGERATINCKASQDVSTAVAWYQQKPGQPPKLLIYSTSYRYTGVPDRFSGSGSGTDFTLTISSLQAEDVAVYYCQQHYSTPYTFGGGTKVEIKR
55.9 nM | 36.7 nM | 0.000969 s⁻¹ | 26400 M⁻¹ s⁻¹ | 16 nM | 0.000473 s⁻¹ | 29500 M⁻¹ s⁻¹ | 16.5 nM | chimeric antibody CH67 (antibody, human IgG1, kappa, V domains shown, Murine 67# variable regions + human constant regions) VH: QVQLKQSGPGLVQPSQSLSITCIVSGFSLTNYGVNWVRQSPRKGLEWLGVIWSRGNTDYNAAFISRLIISKDNSKSQVFLKMNRLQADDTAIYYCARKDAVVATDALDYWGQGTSVTVSS VL: DIVMTQSHKFMSTSLGDRVSITCKASQDVSTAVAWYQQKPGQSPKLLIYSTSYRYTGVPDRFTGSGSGTDFTFTISSVQAEDLAVYYCQQHYSTPYTFGGGTKLEIKR
107 nM | 20.1 nM | 0.000624 s⁻¹ | 31000 M⁻¹ s⁻¹ | 12.9 nM | 0.000399 s⁻¹ | 31000 M⁻¹ s⁻¹ | 18.9 nM | hu67-14 (antibody, human IgG1, kappa, V domains shown) VH: EVTLKQSGPVLVKPTQTLTLTCTVSGFSLTNYGVNWIRQPPRKGLEWLGVIWSRGNTDYNAAFISRLTISKDNSKSQVVLKMTNMDPVDTATYYCARKDAVVATDALDYWGQGTTVTVSS VL: DIQMTQSHKFLSASVGDRVTITCKASQDVSTAVAWYQQKPGKSPKLLIYSTSYRYTGVPSRFSGSGSGTDFTFTISSLQPEDIATYYCQQHYSTPYTFGGGTKVEIKR
 | 23.2 nM | 0.00949 s⁻¹ | 409000 M⁻¹ s⁻¹ | 23.5 nM | 0.00767 s⁻¹ | 327000 M⁻¹ s⁻¹ | 1.84 nM | chimeric antibody CH310 (antibody, human IgG1, kappa, V domains shown, Murine 310# variable regions + human constant regions) VH: EVQLQQSGPELVKPGASLKISCKASGYSFTGYYMNWVKQSPEKSLEWIGEINPSTGGSTYNQKFKAKATLTVDQSSNTAYMQLKSLTSEDSAVYYCARRELGGPFGYWGQGTPVTVSA VL: SIVMTQTPKFLLVSSGDRVTITCKASQSVSNGIAWYQQKPGQSPKLLIYFASNRYTGVPDRFTGSGYGTDFTFTISTVQAEDLAVYFCQQDYSSPWTFGGGTKLEIKR
0.45 nM | 0.545 nM | 7.45e-05 s⁻¹ | 137000 M⁻¹ s⁻¹ | 0.642 nM | 9.83e-05 s⁻¹ | 153000 M⁻¹ s⁻¹ | 1.09 nM | hu10H10-29 (antibody, V domains shown, H11+L1; Full-length IgG) VH: EVQLVQSGSELKKPGASVKVSCKASGYTFITYWIEWVKQRPGQGLEWMGDILPYSGSTNYNENFKGRATFSADTSVSTAYLQISSLKAEDTAVYYCARSGYYGNSGFAYWGQGTLVTVSS VL: DIQMTQSPSSLSASVGDRVTITCKSSQSLLSSGNQKNYLTWYQQKPGKAPKLLIYWASTRESGVPSRFSGSGSGTDFTLTISSLQPEDFATYYCQNDYTYPLTFGQGTKLEIK
0.96 nM |  |  |  |  |  |  | 1.09 nM | hu10H10-33 (antibody, V domains shown, H7+L3; Full-length IgG) VH: EVQLVQSGSELKKPGASVKVSCKASGYTFITYWIEWVKQRPGQGLEWMGDILPGSGSTNYNENFKGRATFSADTSVSTAYLQISSLKAEDTAVYYCARSGYYGNSGFAYWGQGTLVTVSS VL: DIQMTQSPSSLSASVGDRVTITCKSSQSLLSSGNQKNYLTWYQQKPGKAPKLLIYWASTREEGVPSRFSGSGSGTDFTLTISSLQPEDFATYYCQNDYTYPLTFGQGTKLEIK
1.09 nM |  |  |  |  |  |  | 1.43 nM | hu10H10-58 (antibody, V domains shown, H2+L6; Full-length IgG) VH: EVQLVQSGSELKKPGASVKVSCKASGYTFITYWIEWVRQRPGQGLEWMGDILPGSGSTNYNENFKGRAVFSADTSVSTAYLQISSLKAEDTAVYYCARSGYYGNSGFAYWGQGTLVTVSS VL: DIQMTQSPSSLSASVGDRVTITCKSSQSLLSSSNQKNYLTWYQQKPGKAPKLLIYWASTREEGVPSRFSGSGSGTDFTLTISSLQPEDFATYYCQNDYTYPLTFGQGTKLEIK
0.79 nM |  |  |  |  |  |  | 1.09 nM | hu10H10-35 (antibody, V domains shown, H9+L3; Full-length IgG) VH: EVQLVQSGSELKKPGASVKVSCKASGYTFRTYWIEWVKQRPGQGLEWMGDILPGSGSTNYNENFKGRATFSADTSVSTAYLQISSLKAEDTAVYYCARSGYYGNSGFAYWGQGTLVTVSS VL: DIQMTQSPSSLSASVGDRVTITCKSSQSLLSSGNQKNYLTWYQQKPGKAPKLLIYWASTREEGVPSRFSGSGSGTDFTLTISSLQPEDFATYYCQNDYTYPLTFGQGTKLEIK
0.35 nM |  |  |  |  |  |  | 1.07 nM | hu10H10-37 (antibody, V domains shown, H11+L3; Full-length IgG) VH: EVQLVQSGSELKKPGASVKVSCKASGYTFITYWIEWVKQRPGQGLEWMGDILPYSGSTNYNENFKGRATFSADTSVSTAYLQISSLKAEDTAVYYCARSGYYGNSGFAYWGQGTLVTVSS VL: DIQMTQSPSSLSASVGDRVTITCKSSQSLLSSGNQKNYLTWYQQKPGKAPKLLIYWASTREEGVPSRFSGSGSGTDFTLTISSLQPEDFATYYCQNDYTYPLTFGQGTKLEIK
1.02 nM |  |  |  |  |  |  | 1.12 nM | hu10H10-57 (antibody, V domains shown, H2+L5; Full-length IgG) VH: EVQLVQSGSELKKPGASVKVSCKASGYTFITYWIEWVRQRPGQGLEWMGDILPGSGSTNYNENFKGRAVFSADTSVSTAYLQISSLKAEDTAVYYCARSGYYGNSGFAYWGQGTLVTVSS VL: DIQMTQSPSSLSASVGDRVTITCKSSQSLLDSGNQKNYLTWYQQKPGKAPKLLIYWASTREEGVPSRFSGSGSGTDFTLTISSLQPEDFATYYCQNDYTYPLTFGQGTKLEIK
0.41 nM | 0.47 nM | 7.34e-05 s⁻¹ | 156000 M⁻¹ s⁻¹ | 0.375 nM | 6.77e-05 s⁻¹ | 181000 M⁻¹ s⁻¹ | 1.09 nM | hu10H10-53 (antibody, V domains shown, H11+L6; Full-length IgG) VH: EVQLVQSGSELKKPGASVKVSCKASGYTFITYWIEWVKQRPGQGLEWMGDILPYSGSTNYNENFKGRATFSADTSVSTAYLQISSLKAEDTAVYYCARSGYYGNSGFAYWGQGTLVTVSS VL: DIQMTQSPSSLSASVGDRVTITCKSSQSLLSSSNQKNYLTWYQQKPGKAPKLLIYWASTREEGVPSRFSGSGSGTDFTLTISSLQPEDFATYYCQNDYTYPLTFGQGTKLEIK
0.42 nM |  |  |  |  |  |  | 1.1 nM | hu10H10-39 (antibody, V domains shown, H13+L3 (printed bu10H10-39); Full-length IgG; also called bu10H10-39) VH: EVQLVQSGSELKKPGASVKVSCKASGYTFITYWIEWVKQRPGQGLEWMGDILPGSGWTNYNENFKGRATFSADTSVSTAYLQISSLKAEDTAVYYCARSGYYGNSGFAYWGQGTLVTVSS VL: DIQMTQSPSSLSASVGDRVTITCKSSQSLLSSGNQKNYLTWYQQKPGKAPKLLIYWASTREEGVPSRFSGSGSGTDFTLTISSLQPEDFATYYCQNDYTYPLTFGQGTKLEIK
0.99 nM |  |  |  |  |  |  | 1.12 nM | hu10H10-34 (antibody, V domains shown, H8+L3; Full-length IgG) VH: EVQLVQSGSELKKPGASVKVSCKASGRTFITYWIEWVRQRPGQGLEWMGDILPGSGSTNYNENFKGRATFSADTSVSTAYLQISSLKAEDTAVYYCARSGYYGNSGFAYWGQGTLVTVSS VL: DIQMTQSPSSLSASVGDRVTITCKSSQSLLSSGNQKNYLTWYQQKPGKAPKLLIYWASTREEGVPSRFSGSGSGTDFTLTISSLQPEDFATYYCQNDYTYPLTFGQGTKLEIK
0.55 nM |  |  |  |  |  |  | 1.07 nM | hu10H10-40 (antibody, V domains shown, H14+L3 (printed bu10H10-40); Full-length IgG; also called bu10H10-40) VH: EVQLVQSGSELKKPGASVKVSCKASGYTFITYWIEWVRQRPGQGLEWMGDILPGSGWTNYNENFKGRAVFSADTSVSTAYLQISSLKAEDTAVYYCARSGYYGNSGFAYWGQGTLVTVSS VL: DIQMTQSPSSLSASVGDRVTITCKSSQSLLSSGNQKNYLTWYQQKPGKAPKLLIYWASTREEGVPSRFSGSGSGTDFTLTISSLQPEDFATYYCQNDYTYPLTFGQGTKLEIK
0.81 nM |  |  |  |  |  |  | 1.14 nM | hu10H10-38 (antibody, V domains shown, H12+L3; Full-length IgG) VH: EVQLVQSGSELKKPGASVKVSCKASGYTFITYWIEWVKQRPGQGLEWMGDILPGHGSTNYNENFKGRATFSADTSVSTAYLQISSLKAEDTAVYYCARSGYYGNSGFAYWGQGTLVTVSS VL: DIQMTQSPSSLSASVGDRVTITCKSSQSLLSSGNQKNYLTWYQQKPGKAPKLLIYWASTREEGVPSRFSGSGSGTDFTLTISSLQPEDFATYYCQNDYTYPLTFGQGTKLEIK
0.96 nM |  |  |  |  |  |  | 2.14 nM | hu10H10-36 (antibody, V domains shown, H10+L3; Full-length IgG) VH: EVQLVQSGSELKKPGASVKVSCKASGYTFIEYWIEWVKQRPGQGLEWMGDILPGSGSTNYNENFKGRATFSADTSVSTAYLQISSLKAEDTAVYYCARSGYYGNSGFAYWGQGTLVTVSS VL: DIQMTQSPSSLSASVGDRVTITCKSSQSLLSSGNQKNYLTWYQQKPGKAPKLLIYWASTREEGVPSRFSGSGSGTDFTLTISSLQPEDFATYYCQNDYTYPLTFGQGTKLEIK
